Here are results for two molecules from PMC2248580 (BMC Structural Biology, 2007).

This assay concerns the target T1, human activated blood coagulation factor X (FXa) (human).
T1 construct: also called factor Xa; Stuart factor
The assay is described as follows: SPR; […]; 37°C; HBS (10 mM Hepes, 150 mM NaCl, 5 mM CaCl2, 0.005% P20, pH 7.4); Langmuir fit; […]. The note with it: both partners purified.

T1 sequence (P00742 whole entry): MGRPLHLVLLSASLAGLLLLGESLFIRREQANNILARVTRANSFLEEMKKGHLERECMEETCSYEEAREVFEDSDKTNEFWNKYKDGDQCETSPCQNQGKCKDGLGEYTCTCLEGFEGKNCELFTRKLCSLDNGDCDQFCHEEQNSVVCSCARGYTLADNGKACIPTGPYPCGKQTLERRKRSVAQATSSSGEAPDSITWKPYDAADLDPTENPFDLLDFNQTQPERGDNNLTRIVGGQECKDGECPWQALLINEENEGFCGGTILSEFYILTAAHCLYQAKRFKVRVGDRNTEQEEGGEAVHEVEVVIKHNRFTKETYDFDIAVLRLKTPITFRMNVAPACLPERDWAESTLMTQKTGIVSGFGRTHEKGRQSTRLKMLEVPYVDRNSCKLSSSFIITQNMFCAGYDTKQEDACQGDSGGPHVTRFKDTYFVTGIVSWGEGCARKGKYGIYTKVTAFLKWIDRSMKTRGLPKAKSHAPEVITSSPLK

B1: Vbb, the PLA2 from Vipera berus berus venom (enzyme)
chain: NLFQFGNMINHMVGKHAVWSYLSYGCYCGWGGQGKPQDATDRCCFVHDCCYGRANGCDPKLSTYSYNFQNGNIVCGNKYGCLRHICECDRVAAICFQKNMNTYNKKYKNYSSSNCQENSDKC
modifications: γ-carboxyglutamic acid in the Gla domain (residues 1–39)
With B1, the dissociation constant Kd (in general, a measure of binding affinity in units of concentration) is 830 ± 15 nM; the koff (usually a measure of how fast the partners let go of each other) is 0.025 s⁻¹; the kon (as a rule, the rate constant with which the complex forms) came out at 30000 M⁻¹ s⁻¹.

B2: VRV-PLVIII, the PLA2 from Daboia russelli pulchella venom (enzyme)
chain: SLLEFGKMILEETGKLAIPSYSSYGCYCGWGGKGTPKDATDRCCFVHDCCYGNLPDCNPKSDRYKYKRVNGAIVCEKGTSCENRICECDKAAAICFRQNLNTYSKKYMLYPDFLCKGELKC
Take B2: binding was characterised by a dissociation constant (Kd) of 578 ± 15 nM, the koff is 0.026 s⁻¹ and the kon is 45000 M⁻¹ s⁻¹.
